Columns and labels:
[1] = molecular target: T1, human CD26-derived 13 mer peptide 87 (human); assay: peptide microarray
T1 peptide: GTFLAYAQFNDTE
Procedure: (§1) The overnight incubation was followed by three washings with each of PBS buffer pH 7.5 and water. The microarrays were then scanned using ArrayWorx-Microarray Scanner.
(§2) The SPOT recognition software package ArrayPro was used for data analysis. The mean of signal intensities from 3 identical subarrays on each microarray image was used for data evaluation.

[2] = molecular target: T2, human CD26-derived 13 mer peptide 103 (human); assay: peptide microarray
T2 peptide: VRVPYPKAGAVNP
Procedure: as §1, §2

[3] = molecular target: T3, human CD26-derived 13 mer peptide 21 (human); assay: peptide microarray
T3 peptide: VFLENSTFDEFGH
Procedure: as §1, §2

[4] = molecular target: T4, human CD26-derived 13 mer peptide 118 (human); assay: peptide microarray
T4 peptide: ATSIQITAPASML
Procedure: as §1, §2

[5] = molecular target: T5, human CD26-derived 13 mer peptide 100 (human); assay: peptide microarray
T5 peptide: LQYPKTVRVPYPK
Procedure: as §1, §2

[6] = molecular target: T6, human CD26-derived 13 mer peptide 15 (human); assay: peptide microarray
T6 peptide: ILVFNAEYGNSSV
Procedure: as §1, §2

[7] = molecular target: T7, human CD26-derived 13 mer peptide 96 (human); assay: peptide microarray
T7 peptide: YSFYSDESLQYPK
Procedure: as §1, §2

[8] = molecular target: T8, human CD26-derived 13 mer peptide 23 (human); assay: peptide microarray
T8 peptide: NSTFDEFGHSIND
Procedure: as §1, §2

[9] = molecular target: T9, human CD26-derived 13 mer peptide 10 (human); assay: peptide microarray
T9 peptide: HEYLYKQENNILV
Procedure: as §1, §2

[10] = molecular target: T10, human CD26-derived 13 mer peptide 18 (human); assay: peptide microarray
T10 peptide: EYGNSSVFLENST
Procedure: as §1, §2

[11] = molecular target: T11, human CD26-derived 13 mer peptide 24 (human); assay: peptide microarray
T11 peptide: TFDEFGHSINDYS
Procedure: as §1, §2

[12] = molecular target: T12, human CD26-derived 13 mer peptide 28 (human); assay: peptide microarray
T12 peptide: INDYSISPDGQFI
Procedure: as §1, §2

[13] = molecular target: T13, human CD26-derived 13 mer peptide 46 (human); assay: peptide microarray
T13 construct: also called NKRQL1TEERIPN
T13 peptide: NKRQLITEERIPN
Procedure: as §1, §2

[14] = molecular target: T14, human CD26-derived 13 mer peptide 88 (human); assay: peptide microarray
T14 peptide: FLAYAQFNDTEVP
Procedure: as §1, §2

[15] = molecular target: T15, human CD26-derived 13 mer peptide 102 (human); assay: peptide microarray
T15 peptide: KTVRVPYPKAGAV
Procedure: as §1, §2

[16] = molecular target: T16, human CD26-derived 13 mer peptide 47 (human); assay: peptide microarray
T16 peptide: RQLITEERIPNNT
Procedure: as §1, §2

[17] = molecular target: T17, human CD26-derived 13 mer peptide 111 (human); assay: peptide microarray
T17 peptide: FFVVNTDSLSSVT
Procedure: as §1, §2

[18] = molecular target: T18, human CD26-derived 13 mer peptide 122 (human); assay: peptide microarray
T18 peptide: PASMLIGDHYLCD
Procedure: as §1, §2

[19] = molecular target: T19, human CD26-derived 13 mer peptide 71 (human); assay: peptide microarray
T19 peptide: TGKEDIIYNGITD
Procedure: as §1, §2

[20] = molecular target: T20, human CD26-derived 13 mer peptide 45 (human); assay: peptide microarray
T20 peptide: DLNKRQLITEERI
Procedure: as §1, §2

[21] = molecular target: T21, human CD26-derived 13 mer peptide 43 (human); assay: peptide microarray
T21 peptide: YDIYDLNKRQLIT
Procedure: as §1, §2

[22] = molecular target: T22, human CD26-derived 13 mer peptide 44 (human); assay: peptide microarray
T22 peptide: IYDLNKRQLITEE
Procedure: as §1, §2

[23] = molecular target: T23, human CD26-derived 13 mer peptide 90 (human); assay: peptide microarray
T23 peptide: AQFNDTEVPLIEY
Procedure: as §1, §2

[24] = molecular target: T24, human CD26-derived 13 mer peptide 22 (human); assay: peptide microarray
T24 peptide: LENSTFDEFGHSI
Procedure: as §1, §2

[25] = molecular target: T25, human CD26-derived 13 mer peptide 67 (human); assay: peptide microarray
T25 construct: also called LPSYRITWTGKED
T25 peptide: LPSYRITWTGKED
Procedure: as §1, §2

[26] = molecular target: T26, human CD26-derived 13 mer peptide 112 (human); assay: peptide microarray
T26 peptide: VVNTDSLSSVTNA
Procedure: as §1, §2

[27] = molecular target: T27, human CD26-derived 13 mer peptide 119 (human); assay: peptide microarray
T27 peptide: SIQITAPASMLIG
Procedure: as §1, §2

[28] = molecular target: T28, human CD26-derived 13 mer peptide 25 (human); assay: peptide microarray
T28 peptide: DEFGHSINDYSIS
Procedure: as §1, §2

[29] = molecular target: T29, human CD26-derived 13 mer peptide 117 (human); assay: peptide microarray
T29 peptide: TNATSIQITAPAS
Procedure: as §1, §2

[30] = molecular target: T30, human CD26-derived 13 mer peptide 9 (human); assay: peptide microarray
T30 peptide: SDHEYLYKQENNI
Procedure: as §1, §2

[31] = molecular target: T31, human CD26-derived 13 mer peptide 60 (human); assay: peptide microarray
T31 peptide: YVWNNDIYVKIEP
Procedure: as §1, §2

[32] = molecular target: T32, human CD26-derived 13 mer peptide 116 (human); assay: peptide microarray
T32 peptide: SVTNATSIQITAP
Procedure: as §1, §2

[33] = molecular target: T33, human CD26-derived 13 mer peptide 26 (human); assay: peptide microarray
T33 peptide: FGHSINDYSISPD
Procedure: as §1, §2

[34] = molecular target: T34, human CD26-derived 13 mer peptide 104 (human); assay: peptide microarray
T34 peptide: VPYPKAGAVNPTV
Procedure: as §1, §2

[35] = molecular target: T35, human CD26-derived 13 mer peptide 62 (human); assay: peptide microarray
T35 peptide: NDIYVKIEPNLPS
Procedure: as §1, §2

[36] = molecular target: T36, human CD26-derived 13 mer peptide 110 (human); assay: peptide microarray
T36 peptide: VKFFVVNTDSLSS
Procedure: as §1, §2

[37] = molecular target: T37, human CD26-derived 13 mer peptide 61 (human); assay: peptide microarray
T37 peptide: WNNDIYVKIEPNL
Procedure: as §1, §2

[38] = molecular target: human CD26 on the cell surface (human, UniProt P27487 1-766); assay: cell-based or functional assay
human CD26 on the cell surface, sequence (P27487 whole entry): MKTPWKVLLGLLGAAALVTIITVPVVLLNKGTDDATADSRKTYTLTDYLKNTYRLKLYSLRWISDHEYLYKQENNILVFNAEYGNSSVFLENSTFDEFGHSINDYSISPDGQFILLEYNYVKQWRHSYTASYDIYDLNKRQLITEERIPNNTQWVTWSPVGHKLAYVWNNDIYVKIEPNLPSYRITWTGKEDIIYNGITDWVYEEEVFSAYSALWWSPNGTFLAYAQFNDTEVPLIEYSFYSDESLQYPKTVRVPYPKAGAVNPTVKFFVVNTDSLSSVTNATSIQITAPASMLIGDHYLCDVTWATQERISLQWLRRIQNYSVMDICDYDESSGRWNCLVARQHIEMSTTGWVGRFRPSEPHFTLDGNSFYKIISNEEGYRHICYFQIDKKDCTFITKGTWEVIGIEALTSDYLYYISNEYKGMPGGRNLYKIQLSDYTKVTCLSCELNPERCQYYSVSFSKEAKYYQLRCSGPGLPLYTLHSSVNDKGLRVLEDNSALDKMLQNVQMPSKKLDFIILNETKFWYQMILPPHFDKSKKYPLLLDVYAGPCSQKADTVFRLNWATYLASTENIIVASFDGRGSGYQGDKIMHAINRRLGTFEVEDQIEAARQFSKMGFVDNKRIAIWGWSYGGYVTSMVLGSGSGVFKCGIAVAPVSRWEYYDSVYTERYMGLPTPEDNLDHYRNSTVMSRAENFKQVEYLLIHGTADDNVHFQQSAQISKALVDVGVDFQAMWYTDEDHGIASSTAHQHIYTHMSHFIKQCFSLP

B1: rhuMAb 412 (antibody, human IgG1, V domains shown)
VH: EVQLVQSGGGVKQPGETLRLTCTASGFSLTTYGVHWVRQAPGKGLEWVGVIWGDGRTDYDAAFMSRVTISKDTSKSTAYLQMNSLRAEDTAVYYCMRNRHDWFDYWGQGTTVTVSS
VL: EIEMTQSPSSLSVSAGERATISCSASQDIRNSLNWYQQKPGQAPRLLIYYSSNLHTGVPARFSGSGSGTDFTLTISRLEPEDVAIYYCQQSNKLPLTFGSGTKVEIKR
notes: X385 VH and X380 VL with human IgG1 and human kappa constant regions; also called X412
0.3%: percent inhibition, MTT assay, Jurkat CD26+ cells, 0.05 ug/ml [38]
23.6%: percent inhibition, MTT assay, Jurkat CD26+ cells, 5 ug/ml [38]
0: Mean Signal Value [1] | Mean Signal Value [2] | Mean Signal Value [3] | Mean Signal Value [4] | Mean Signal Value [5] | Mean Signal Value [6] | Mean Signal Value [7] | Mean Signal Value [8] | Mean Signal Value [9] | Mean Signal Value [10] | Mean Signal Value [11] | Mean Signal Value [12] | Mean Signal Value [13] | Mean Signal Value [14] | Mean Signal Value [15] | Mean Signal Value [16] | Mean Signal Value [17] | Mean Signal Value [18] | Mean Signal Value [19] | Mean Signal Value [20] | Mean Signal Value [21] | Mean Signal Value [22] | Mean Signal Value [23] | Mean Signal Value [24] | Mean Signal Value [25] | Mean Signal Value [26] | Mean Signal Value [27] | Mean Signal Value [28] | Mean Signal Value [29] | Mean Signal Value [30] | Mean Signal Value [31] | Mean Signal Value [32] | Mean Signal Value [33] | Mean Signal Value [34] | Mean Signal Value [35] | Mean Signal Value [36] | Mean Signal Value [37]
5.4%: percent inhibition, MTT assay, Jurkat CD26+ cells, 0.25 ug/ml [38]

— US20070105771A1 (Y S THERAPEUTICS, published 2007)
